The results in this text go back to PMC4450493, “Binding of undamaged double stranded DNA to vaccinia virus uracil-DNA Glycosylase”.

In the data set the target is D4 (vaccinia virus uracil-DNA glycosylase, tfD4) (Vaccinia virus, UniProt P04303 1-218). The data set can be described thus: X-ray crystallography (2.89 A); undamaged DNA without uracil; glycerol in active sites; no A20. To be noted: protein: recombinant; tags: His6 tag cleaved; three vector-encoded residues GSH remain at N-terminus; chain copies: 2; blunt; palindromic, two copies of the same strand.

B1: self-complementary 12mer dsDNA (dsDNA)
DNA 1: GCAAACGTTTGC
DNA 2: GCAAACGTTTGC
As for B1, the binding result is listed as “binds”.
